assay: yeast display, Sf9 membrane polyspecificity reagent, FACS + sequencing; frameworks hold sequencing errors
Summary of the method: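 Galactose induction of a Saccharomyces cerevisiae BJ5465 synthetic nanobody display library ran 36–48 hours. The cells were then stained for 1 hour at 4 °C with 10% biotinylated, detergent-solubilized Sf9 membrane reagent, pulled down on streptavidin microbeads and FACS-sorted into low and high (top ~1%) gates on expression and reagent-binding fluorescence. Labels for polyreactivity follow the gate of origin.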

**Q.** For “QVQLVESGGGLVQAGGSLRLSCAASGFIFSYYAMGWYRQAPGKERELVATITRSGGRTYYADSVKGRFTISRDNAKNTVYLQMNSLKPEDTAVYYCAADYYYKDDSWGQGTQVTVSS”, which “polyreactivity (PSR sort gate)” value is on record?
**A.** The value was “high polyreactivity”.

**Q.** For “QVQLVESGGGLVQAGGSLRLSCAASGFIFSYYVMGWYRQAPGKERELVAGISKRGGSTRYADSVKGRFTISRDNAKNTVYLQMNSLKPEDTAVYYCNRLPYLHFAGRLTNYDYWGQGTQVTVSS”, which “polyreactivity (PSR sort gate)” value is on record?
**A.** Its value is “high polyreactivity”.

**Q.** Which “polyreactivity (PSR sort gate)” value does the source give for “QVQLVESGGGLVQAGGSLRLSCAASGFIFTDYAMGWYRQAPGKERELVAAISSGGRTYYADSVKGRFTISRDNAKNTVYLQMNSLKPEDTAVYYCARGGRAEGWGQGTQVTVSS” here?
**A.** Its value is “high polyreactivity”.

**Q.** Which “polyreactivity (PSR sort gate)” value does the source give for “QVQLVESGGGLVQAGGSLRLSCAASGFIFTGNVMGWYRQAPGKEREFVAAISRSGGNTYYADSVKGRFTISRDKAKNTVYLQMNSLKPEDTAVYYCAVPKHFVVSYDYWGQGTQVTVSS” here?
**A.** The value was “high polyreactivity”.

**Q.** Which “polyreactivity (PSR sort gate)” value does the source give for “QVQLVESGGGLVQAGGSLRLSCAASGFIFTKYVMGWYRQAPGKERELVAAISSGGGRTYYADSVKGRFTISRDNGKYTVYLQMNSQKPEDTAVYYCNIDDERGKLYYWGQGTQVTVSS” here?
**A.** Its value is “high polyreactivity”.

**Q.** Which “polyreactivity (PSR sort gate)” value does the source give for “QVQLVESGGGLVQAGGSLRLSCAASGFIFTLYAMGWYRQAPGKEREFVAAISWSDGSTTYADSVKGRFTISRDNAKNSVYSQMYSLKPEDTAVYYCADVTCSYIRGLVYHFYYWGQGTQVTVSS” here?
**A.** The value was “low polyreactivity”.

**Q.** With “QVQLVESGGGLVQAGGSLRLSCAASGFIFTLYAMGWYRQAPGKERELVADISFNSGNTYYADSVKGRFTISRDNAKNTVYLQMNSLIPEDTAVYYCAVDLYFVGDVYEGYLGGDYLGQGTQVTVSS” as the sequence, how does the “polyreactivity (PSR sort gate)” value read?
**A.** Its value is “low polyreactivity”.

**Q.** With “QVQLVESGGGLVQAGGSLRLSCAASGFIFTPYTKGWYRQATGKERELVAAITDGSSTYYADSVKGRFTISRDNAKNTVYLQMNSLKPEDTAVYYCNADTLTTTRRFNPYDYWGQGTQVTVSS” as the sequence, how does the “polyreactivity (PSR sort gate)” value read?
**A.** The value was “low polyreactivity”.

**Q.** For “QVQLVESGGGLVQAGGSLRLSCAASGFIFTQNAMGWYRQAPGKERELVARISRRGGSTYYADSVKGRFTISRDNAKNTVYLQMNSLKPEDTAVYYCAATINYPGPTRFVSGNHDYWGQGTQVTVSS”, which “polyreactivity (PSR sort gate)” value is on record?
**A.** The value was “high polyreactivity”.

**Q.** For “QVQLVESGGGLVQAGGSLRLSCAASGFIFTQYAMGWYRPAPGKEWELVAAITRSGGRTYYADSVKGRFTISRDNAKNTVYIQMNSLKPEDTAVYYCAVDTVTRTVLVYGDRNDSWGQGTQVTVSS”, which “polyreactivity (PSR sort gate)” value is on record?
**A.** The value was “high polyreactivity”.

**Q.** For “QVQLVESGGGLVQAGGSLRLSCAASGFIFTQYAMGWYRQAPGKERELVAGITSSGNTYYADSVKGRFTISRDNAKNTVYLQMNSLKPEDTAVYYCAARSYVRRFDGGYWGQGTQVTVSS”, which “polyreactivity (PSR sort gate)” value is on record?
**A.** Its value is “high polyreactivity”.

**Q.** Which “polyreactivity (PSR sort gate)” value does the source give for “QVQLVESGGGLVQAGGSLRLSCAASGFIFTRNVMGWYRQAPGKERELVAAISSGGRTYYADSVKGRFTISRDNAKNTVYLQMNRLKPEDTAVYYCSIVSKFTGDYGYWGQGTQVTVSS” here?
**A.** Its value is “high polyreactivity”.

**Q.** For “QVQLVESGGGLVQAGGSLRLSCAASGFIFTRYAMGWYRQAPGKERELVATITSGGSTNYADSVKGRFTISRDNAKNTVYLQMNSLKPEDTAVYYCTARWTGSYTSTGFRRRFDYWGQGTQVTVSS”, which “polyreactivity (PSR sort gate)” value is on record?
**A.** Its value is “high polyreactivity”.

**Q.** For “QVQLVESGGGLVQAGGSLRLSCAASGFIFTSYAMGWYRQAPGKERELVAAISGSAASTYYADSVKGRFTISRDNAKNTVYLQMNSLKPEDTAVYYCAADYQGYTPSDGRYYWGQGTQVTVSS”, which “polyreactivity (PSR sort gate)” value is on record?
**A.** The value was “low polyreactivity”.

**Q.** With “QVQLVESGGGLVQAGGSLRLSCAASGFIFTVNAMGWYRQAPGKERELVAAITQSCGNTSYADSVKGRFTISRDNAKNTVYLQMNSLKPEDTAVYYCNASSDTSRYGVSTYYYWGQGTQVTVSS” as the sequence, how does the “polyreactivity (PSR sort gate)” value read?
**A.** The value was “low polyreactivity”.

**Q.** For “QVQLVESGGGLVQAGGSLRLSCAASGFIFTVNAMGWYRQAPGKERELVAAITQSGGNTSYADSVKGRFTISRDNAKNTVYLQMNSLKPEDTAVYYCNAEYTWPYHGVRNGWFNFKYEYWGQGTQVTVSS”, which “polyreactivity (PSR sort gate)” value is on record?
**A.** Its value is “low polyreactivity”.

**Q.** With “QVQLVESGGGLVQAGGSLRLSCAASGFIFVANAMGWYRQAPGKERELVADINRGSTYYADSVKGRFTISRDNAKNTVYLQMNSLKPEDTAVYYCNRVYTQTYNPWGFEYWGQGTQVTVSS” as the sequence, how does the “polyreactivity (PSR sort gate)” value read?
**A.** Its value is “high polyreactivity”.

**Q.** With “QVQLVESGGGLVQAGGSLRLSCAASGFIFVDYAMGWYRQAPGKERELVASIDRSDGSTYYADSVKGRFTISRDNAKKTVYLQMNSLKPEDTAVYYCAADDPLYSISTGDYWGQGTQVTVSL” as the sequence, how does the “polyreactivity (PSR sort gate)” value read?
**A.** Its value is “low polyreactivity”.

**Q.** With “QVQLVESGGGLVQAGGSLRLSCAASGFIFVGNAMGWYRQAHGKERELVAAISRRGSRTFYADSVKARFTISRDNAKNTVYLQMNSLKPEETAVYYCAAEGYYVTPFDYWGQGTQVTVSS” as the sequence, how does the “polyreactivity (PSR sort gate)” value read?
**A.** Its value is “high polyreactivity”.

**Q.** Which “polyreactivity (PSR sort gate)” value does the source give for “QVQLVESGGGLVQAGGSLRLSCAASGFIFVGYGMGWYRQAPGKERELVAVITASGGSTYYADSVKGRFTISRDYAKKTVYLQMNSLKPEATAVYYCAARVGRYGYSEYYYWGHGTQVTVSS” here?
**A.** The value was “high polyreactivity”.

**Q.** Which “polyreactivity (PSR sort gate)” value does the source give for “QVQLVESGGGLVQAGGSLRLSCAASGFIFVKNAMGWYRQAPGKERELVAVISTRGGRTYYADSVKGRFTISRDNAKNTVYLQMNSLKPEDTAVYYCAADIWFYTYYEYDYWGQGTQVTVSS” here?
**A.** The value was “high polyreactivity”.

**Q.** For “QVQLVESGGGLVQAGGSLRLSCAASGFIFVKNAMGWYRQAPGKERELVAVISTRGGRTYYADSVKGRFTISRDNAKNTVYLQMNSLKPEDTAVYYCAAGDQYKTRRNGYGYWGQGTQVTVSS”, which “polyreactivity (PSR sort gate)” value is on record?
**A.** Its value is “high polyreactivity”.

Reference: the nanobody polyreactivity screen of Harvey et al. (2022)
